Each block holds one binder with its values, some of them ahead of it.
Legend:
Recombinant FGFR-1(IIIc) [1] = target: Recombinant FGFR-1(IIIc) (UniProt P11362); assay: kinetic analysis (BiaCore)
Recombinant FGFR-1(IIIc) [2] = target: Recombinant FGFR-1(IIIc) (UniProt P11362); assay: ELISA blocking assay: FGFR-1(IIIc) binding to immobilised FGF-1
[3] = target: FGFR-1(IIIc) on transfected L6 cells (UniProt P11362); assay: cell-based blocking assay: 125I-FGF-2 (15 ng/ml) binding to FGFR-1(IIIc)-expressing L6 cells
Recombinant FGFR-1(IIIc) [4] = target: Recombinant FGFR-1(IIIc) (UniProt P11362); assay: BiaCore 3000 biosensor, binding kinetics
Recombinant FGFR-1(IIIc) [5] = target: Recombinant FGFR-1(IIIc) (UniProt P11362); assay: ELISA blocking assay: FGFR-1(IIIc) binding to immobilised FGF-2
Recombinant FGFR-1(IIIc) [6] = target: Recombinant FGFR-1(IIIc) (UniProt P11362); assay: ELISA blocking assay: FGFR-1(IIIc) binding to FGF-2
Recombinant FGFR-1(IIIc) [7] = target: Recombinant FGFR-1(IIIc) (UniProt P11362); assay: ELISA blocking assay: FGFR-1(IIIc) binding to FGF-1

- Kd (Recombinant FGFR-1(IIIc) [1]): 0.05 nM
- IC50 (Recombinant FGFR-1(IIIc) [2]): 5 nM
- IC50 [3]: < 5 nM
- Kd (Recombinant FGFR-1(IIIc) [4]): 0.04 nM
- IC50 (Recombinant FGFR-1(IIIc) [5]): 2 to 5 nM
B1: FR1-H7 (antibody, V domains shown)
VH: EVQLVQSGAEVKKPGASVKVSCKVSGYTFTDYYMHWVQQAPGKGLEWMGLVDPEDGETIYAEKFQGRVTITADTSTDTAYMELSSLRSEDTAVYYCARDDYMDVWGKGTLVTVSS
VL: ETTLTQSPDTLSLSPGEGATLSCRASQSVSGSALAWYQQKPGQAPRLLIYDASSRATGVPDRFSGSGSGADFSLTISRLEPEDFAVYSCQQYGSSPLTFGPGTKVDVKR

- IC50 (Recombinant FGFR-1(IIIc) [6]): 10 nM
- IC50 (Recombinant FGFR-1(IIIc) [7]): 5 nM
- Kd (Recombinant FGFR-1(IIIc) [1]): 0.7 nM
B2: FR1-A1 (antibody, V domains shown)
VH: QVQLVQSGAEVKKPGSSVKVSCKASGQTFTGYYMHWVRQAPGQGLEWMGRIIPILGIANYAQKFQGRVTITADKSTSTAYMELSSLRSEDTAVYYCARGGDLGGMDVWGQG
VL: EIVLTQSPLSLPVTPGEPASISCRSSQSLRHSNGYNYLDWYLQKPGQSPQLLIYLASNRASGVPDRFSGSGSGTDFTLKISRVEAEDVGVYYCMQALQIPPTFGPGTKVDIKR

Source: patent US20070274981A1
